Experimental data as given in the supplement of paper PMC9112550, “Optimization of the antimicrobial peptide Bac7 by deep mutational scanning” (BMC Biology, 2022).

Each sequence was assayed on Escherichia coli TOP10 (assay: shrunken log2 fold change of peptide-encoding DNA abundance (4.5 h post-induction vs induction); higher = less antimicrobial activity (less host growth inhibition)). Conditions: time post-induction: 4.5 h; library: site-saturation at positions 5, 18, 19, 20.
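Further: peptides expressed intracellularly from a pBAD plasmid library in pooled LB shake-flask culture, induced with 0.3% L-arabinose, DNA abundance read by NGS, three biological replicates, DESeq2 with apeglm shrinkage.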

Sequence	shrunken log2 fold change
RRIRERPPRLPRPRPRPAMYPRP	-0.205
RRIRRRPPRLPRPRPRPTINPRP	-0.134
RRIRYRPPRLPRPRPRPQSMPRP	-0.451
RRIRFRPPRLPRPRPRPWTIPRP	-0.238
RRIRARPPRLPRPRPRPVMIPRP	0.0471
RRIRPRPPRLPRPRPRPHLYPRP	-0.192
RRIRERPPRLPRPRPRPHWAPRP	0.225
RRIRDRPPRLPRPRPRPIVRPRP	-0.00112
RRIRMRPPRLPRPRPRPQKHPRP	0.159
RRIRMRPPRLPRPRPRPGNNPRP	-0.0591
RRIRMRPPRLPRPRPRPEFMPRP	0.656
RRIRWRPPRLPRPRPRPWREPRP	-0.0969
RRIRGRPPRLPRPRPRPAQPPRP	0.377
RRIRNRPPRLPRPRPRPRTRPRP	0.368
RRIRERPPRLPRPRPRPQLMPRP	-0.0865
RRIRCRPPRLPRPRPRPAMAPRP	0.199
RRIRIRPPRLPRPRPRPHTGPRP	-0.356
RRIRIRPPRLPRPRPRPVEQPRP	0.107
RRIRARPPRLPRPRPRPMFTPRP	-0.0981
RRIRLRPPRLPRPRPRPYYYPRP	-1.03
RRIRDRPPRLPRPRPRPWMKPRP	-0.0188
RRIRLRPPRLPRPRPRPNLEPRP	0.0534

Sequence	shrunken log2 fold change
RRIRYRPPRLPRPRPRPVAQPRP	0.128
RRIRHRPPRLPRPRPRPNNEPRP	-0.724
RRIRGRPPRLPRPRPRPMWDPRP	0.639
RRIRERPPRLPRPRPRPTQPPRP	0.254
RRIRERPPRLPRPRPRPTEMPRP	0.0983
RRIRIRPPRLPRPRPRPGSLPRP	-0.475
RRIRKRPPRLPRPRPRPKPSPRP	0.743
RRIRQRPPRLPRPRPRPFAWPRP	-0.0355
RRIRCRPPRLPRPRPRPDSNPRP	-0.488
RRIRFRPPRLPRPRPRPMVEPRP	-0.0547
RRIRERPPRLPRPRPRPLPRPRP	0.179
RRIRGRPPRLPRPRPRPYIKPRP	-0.164
RRIRNRPPRLPRPRPRPLCAPRP	0.194
RRIRLRPPRLPRPRPRPPTDPRP	0.127
RRIRLRPPRLPRPRPRPINIPRP	-0.735
RRIRLRPPRLPRPRPRPGIIPRP	-0.116
RRIRDRPPRLPRPRPRPQQQPRP	-0.114
RRIRIRPPRLPRPRPRPVRAPRP	0.172
RRIRQRPPRLPRPRPRPPSQPRP	0.0863
RRIRNRPPRLPRPRPRPIHPPRP	0.135
RRIRNRPPRLPRPRPRPDVCPRP	-0.00695
RRIRVRPPRLPRPRPRPPVNPRP	0.159

Sequence	shrunken log2 fold change
RRIRTRPPRLPRPRPRPCPNPRP	-0.000921
RRIRDRPPRLPRPRPRPNEPPRP	-0.0233
RRIRLRPPRLPRPRPRPKRNPRP	0.225
RRIRMRPPRLPRPRPRPHYKPRP	-0.539
RRIRNRPPRLPRPRPRPHVLPRP	-0.245
RRIRFRPPRLPRPRPRPYIHPRP	-0.932
RRIRWRPPRLPRPRPRPNKEPRP	-0.0697
RRIRQRPPRLPRPRPRPLNNPRP	-0.586
RRIRCRPPRLPRPRPRPSHCPRP	-0.393
RRIRNRPPRLPRPRPRPYLPPRP	-0.245
RRIRRRPPRLPRPRPRPFGMPRP	-0.0784
RRIRKRPPRLPRPRPRPEHIPRP	0.0147
RRIRQRPPRLPRPRPRPQVQPRP	-0.00173
RRIRTRPPRLPRPRPRPAGTPRP	0.0902
RRIRDRPPRLPRPRPRPEQGPRP	0.0995
RRIRVRPPRLPRPRPRPMQGPRP	-0.0882
RRIRQRPPRLPRPRPRPKVPPRP	0.105
RRIRVRPPRLPRPRPRPGRQPRP	0.0976
RRIRIRPPRLPRPRPRPCPNPRP	-0.159
RRIRNRPPRLPRPRPRPDHEPRP	-0.039
RRIRYRPPRLPRPRPRPWEEPRP	-0.0122
RRIRKRPPRLPRPRPRPDDMPRP	2.74

Sequence	shrunken log2 fold change
RRIRFRPPRLPRPRPRPDNCPRP	-0.0284
RRIRFRPPRLPRPRPRPAKFPRP	-0.265
RRIRTRPPRLPRPRPRPAESPRP	0.0351
RRIRSRPPRLPRPRPRPICSPRP	0.119
RRIRVRPPRLPRPRPRPWHIPRP	-0.127
RRIRKRPPRLPRPRPRPFVQPRP	0.034
RRIRIRPPRLPRPRPRPNNSPRP	-0.655
RRIRDRPPRLPRPRPRPYFWPRP	-0.0487
RRIRLRPPRLPRPRPRPDHFPRP	0.0304
RRIRDRPPRLPRPRPRPGAMPRP	0.408
RRIRVRPPRLPRPRPRPKSKPRP	-0.117
RRIRVRPPRLPRPRPRPNFAPRP	0.104
RRIRMRPPRLPRPRPRPEDWPRP	3.63
RRIRARPPRLPRPRPRPMLRPRP	0.155
RRIRVRPPRLPRPRPRPHGTPRP	-0.408
RRIRNRPPRLPRPRPRPYNSPRP	-1.61
RRIRMRPPRLPRPRPRPHLPPRP	-0.00448
RRIRQRPPRLPRPRPRPCFAPRP	0.0874
RRIRFRPPRLPRPRPRPEHMPRP	0.0146
RRIRFRPPRLPRPRPRPVFYPRP	-0.536
RRIRRRPPRLPRPRPRPDYQPRP	0.0952
RRIRPRPPRLPRPRPRPQRYPRP	-0.0398

Sequence	shrunken log2 fold change
RRIRMRPPRLPRPRPRPPVSPRP	1.27
RRIRWRPPRLPRPRPRPNLRPRP	0.174
RRIRLRPPRLPRPRPRPQGYPRP	-0.141
RRIRRRPPRLPRPRPRPKSCPRP	0.0766
RRIRVRPPRLPRPRPRPQQTPRP	0.0227
RRIRYRPPRLPRPRPRPSMQPRP	-0.288
RRIRKRPPRLPRPRPRPHQDPRP	0.0154
RRIRLRPPRLPRPRPRPKTRPRP	0.226
RRIRPRPPRLPRPRPRPMVMPRP	-0.0504
RRIRKRPPRLPRPRPRPGLDPRP	0.626
RRIRVRPPRLPRPRPRPAAIPRP	-0.0826
RRIRQRPPRLPRPRPRPFFKPRP	-0.132
RRIRLRPPRLPRPRPRPCTSPRP	-0.114
RRIRDRPPRLPRPRPRPFIVPRP	-0.193
RRIRKRPPRLPRPRPRPPNFPRP	0.0909
RRIRSRPPRLPRPRPRPMKVPRP	-0.0404
RRIRLRPPRLPRPRPRPENRPRP	0.097
RRIRIRPPRLPRPRPRPATAPRP	0.0897
RRIRTRPPRLPRPRPRPYGHPRP	-0.587
RRIRFRPPRLPRPRPRPCVLPRP	-0.401
RRIRKRPPRLPRPRPRPDNHPRP	-0.715
